From patent US20210107988A1 (Genmab, published 2021) come the findings set out here.

The target of assay [1] is T1, FcRnECDHis-B2M-BIO (biotinylated extracellular domain of human FcRn with a C-terminal His tag as dimer with … (human, UniProt P55899 24-297)); P61769 21-119, biotinylated (site not stated)).
T1 construct: Coated on Streptawell plates at 5 µg/mL; also called FcRnhsECDHis
As to the kind of experiment: FcRn ELISA, pH 6.0.

The target of assay [2] is T2, dimeric, His-tagged, C-terminally biotinylated ECD of FcγRIIIA allotype 158V (C-terminally biotinylated).
T2 construct: also called diFCGR3A-158V-HisBAP; IIIA-158V
Description: FcγR ELISA.

Assay [3] addresses dimeric, His-tagged, C-terminally biotinylated ECD of FcγRIIIA allotype 158F (C-terminally biotinylated). As to the kind of experiment: FcγR ELISA.
Assay [4] concerns the target T3, dimeric, His-tagged, C-terminally biotinylated ECD of FcγRIIA allotype 131H (Homo sapiens (Human), UniProt P12318 34-215, C-terminally biotinylated).
T3 sequence: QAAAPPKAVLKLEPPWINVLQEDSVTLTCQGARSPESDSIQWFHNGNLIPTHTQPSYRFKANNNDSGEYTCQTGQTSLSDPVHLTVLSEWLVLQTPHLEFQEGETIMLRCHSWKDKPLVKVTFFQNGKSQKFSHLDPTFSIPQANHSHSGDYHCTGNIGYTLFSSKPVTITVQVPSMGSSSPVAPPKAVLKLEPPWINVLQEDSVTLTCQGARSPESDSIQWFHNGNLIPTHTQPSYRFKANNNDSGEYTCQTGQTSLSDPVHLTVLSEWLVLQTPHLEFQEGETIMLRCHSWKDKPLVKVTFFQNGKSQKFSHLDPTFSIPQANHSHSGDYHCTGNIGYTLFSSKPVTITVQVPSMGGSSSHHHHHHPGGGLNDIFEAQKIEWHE
As to the kind of experiment: FcγR ELISA.

The target of assay [5] is T1, FcRnECDHis-B2M-BIO (biotinylated …). Description: FcRn ELISA, pH 7.4.

T1 sequence (P55899 other isoform, or with tags, fused parts or gaps limits assumed, chain 1 of 2): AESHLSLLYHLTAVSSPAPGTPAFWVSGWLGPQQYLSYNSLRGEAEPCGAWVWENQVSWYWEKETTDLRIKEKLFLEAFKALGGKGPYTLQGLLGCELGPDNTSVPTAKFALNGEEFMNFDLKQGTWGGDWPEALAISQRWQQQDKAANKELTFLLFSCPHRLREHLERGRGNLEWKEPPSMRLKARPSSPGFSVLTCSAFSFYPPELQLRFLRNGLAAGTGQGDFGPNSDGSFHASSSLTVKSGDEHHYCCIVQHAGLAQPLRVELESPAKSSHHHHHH
T1 sequence (P61769 21-119 limits assumed, chain 2 of 2): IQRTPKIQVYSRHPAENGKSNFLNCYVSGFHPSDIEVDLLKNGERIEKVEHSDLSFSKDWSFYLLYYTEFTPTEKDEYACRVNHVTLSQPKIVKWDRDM

B1: IgG1-b12 (human IgG1 antibody b12, HIV gp120-specific) (antibody)
heavy: not shown
light: EIVLTQSPGTLSLSPGERATFSCRSSHSIRSRRVAWYQHKPGQAPRLVIHGVSNRASGISDRFSGSGSGTDFTLTITRVEPEDFALYYCQVYGASSYTFGQGTKLERKRTVAAPSVFIFPPSDEQLKSGTASVVCLLNNFYPREAKVQWKVDNALQSGNSQESVTEQDSKDSTYSLSSTLTLSKADYEKHKVYACEVTHQGLSSPVTKSFNRGEC
notes: also called IgG-b12
For the molecule B1, in assay [1], the binding result was “binds”.

B2: IgG1-11B8-E430G-S440K with introduced mutation G237A (antibody, name in EU numbering)
heavy: EVQLVQSGGGLVHPGGSLRLSCTGSGFTFSYHAMHWVRQAPGKGLEWVSIIGTGGVTYYADSVKGRFTISRDNVKNSLYLQMNSLRAEDMAVYYCARDYYGAGSFYDGLYGMDVWGQGTTVTVSSASTKGPSVFPLAPSSKSTSGGTAALGCLVKDYFPEPVTVSWNSGALTSGVHTFPAVLQSSGLYSLSSVVTVPSSSLGTQTYICNVNHKPSNTKVDKRVEPKSCDKTHTCPPCPAPELLGAPSVFLFPPKPKDTLMISRTPEVTCVVVDVSHEDPEVKFNWYVDGVEVHNAKTKPREEQYNSTYRVVSVLTVLHQDWLNGKEYKCKVSNKALPAPIEKTISKAKGQPREPQVYTLPPSREEMTKNQVSLTCLVKGFYPSDIAVEWESNGQPENNYKTTPPVLDSDGSFFLYSKLTVDKSRWQQGNVFSCSVMHGALHNHYTQKKLSLSPGK
light: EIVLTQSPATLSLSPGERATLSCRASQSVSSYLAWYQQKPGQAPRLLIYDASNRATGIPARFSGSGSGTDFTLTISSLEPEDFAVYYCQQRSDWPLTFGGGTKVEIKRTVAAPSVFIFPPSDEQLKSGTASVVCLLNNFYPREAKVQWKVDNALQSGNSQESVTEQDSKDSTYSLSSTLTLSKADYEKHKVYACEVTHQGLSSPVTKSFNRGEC
notes: also called IgG1-11B8-E430G-S440K-G237A
Take B2: the binding result in assay [2], in assay [3] and in assay [4] was “no binding (tested: 20 µg/mL)” each time.

B3: IgG1-CAMPATH-1H-E430G-K439E with introduced mutation G237A (antibody, name in EU numbering)
heavy: QVQLQESGPGLVRPSQTLSLTCTVSGFTFTDFYMNWVRQPPGRGLEWIGFIRDKAKGYTTEYNPSVKGRVTMLVDTSKNQFSLRLSSVTAADTAVYYCAREGHTAAPFDYWGQGSLVTVSSASTKGPSVFPLAPSSKSTSGGTAALGCLVKDYFPEPVTVSWNSGALTSGVHTFPAVLQSSGLYSLSSVVTVPSSSLGTQTYICNVNHKPSNTKVDKRVEPKSCDKTHTCPPCPAPELLGAPSVFLFPPKPKDTLMISRTPEVTCVVVDVSHEDPEVKFNWYVDGVEVHNAKTKPREEQYNSTYRVVSVLTVLHQDWLNGKEYKCKVSNKALPAPIEKTISKAKGQPREPQVYTLPPSREEMTKNQVSLTCLVKGFYPSDIAVEWESNGQPENNYKTTPPVLDSDGSFFLYSKLTVDKSRWQQGNVFSCSVMHGALHNHYTQESLSLSPGK
light: not shown
notes: also called IgG1-CAMPATH-1H-E430G-K439E-G237A
As for B3, the binding result in assay [2] and in assay [4] was “no binding (tested: 20 µg/mL)” each time.

B4: IgG1-Campath-E430G I253G/K439E (antibody)
heavy: QVQLQESGPGLVRPSQTLSLTCTVSGFTFTDFYMNWVRQPPGRGLEWIGFIRDKAKGYTTEYNPSVKGRVTMLVDTSKNQFSLRLSSVTAADTAVYYCAREGHTAAPFDYWGQGSLVTVSSASTKGPSVFPLAPSSKSTSGGTAALGCLVKDYFPEPVTVSWNSGALTSGVHTFPAVLQSSGLYSLSSVVTVPSSSLGTQTYICNVNHKPSNTKVDKRVEPKSCDKTHTCPPCPAPELLGGPSVFLFPPKPKDTLMGSRTPEVTCVVVDVSHEDPEVKFNWYVDGVEVHNAKTKPREEQYNSTYRVVSVLTVLHQDWLNGKEYKCKVSNKALPAPIEKTISKAKGQPREPQVYTLPPSREEMTKNQVSLTCLVKGFYPSDIAVEWESNGQPENNYKTTPPVLDSDGSFFLYSKLTVDKSRWQQGNVFSCSVMHGALHNHYTQESLSLSPGK
light: not shown
notes: also called IgG1-CAMPATH-1H-E430G-K439E with I253G; constant region IgG1m(f)-I253G-E430G-K439E
Regarding B4, the binding result in assay [5] is recorded as “no binding (tested: 40 µg/mL)”.

B5: IgG1-Campath-E430G H310D/K439E (antibody)
heavy: QVQLQESGPGLVRPSQTLSLTCTVSGFTFTDFYMNWVRQPPGRGLEWIGFIRDKAKGYTTEYNPSVKGRVTMLVDTSKNQFSLRLSSVTAADTAVYYCAREGHTAAPFDYWGQGSLVTVSSASTKGPSVFPLAPSSKSTSGGTAALGCLVKDYFPEPVTVSWNSGALTSGVHTFPAVLQSSGLYSLSSVVTVPSSSLGTQTYICNVNHKPSNTKVDKRVEPKSCDKTHTCPPCPAPELLGGPSVFLFPPKPKDTLMISRTPEVTCVVVDVSHEDPEVKFNWYVDGVEVHNAKTKPREEQYNSTYRVVSVLTVLDQDWLNGKEYKCKVSNKALPAPIEKTISKAKGQPREPQVYTLPPSREEMTKNQVSLTCLVKGFYPSDIAVEWESNGQPENNYKTTPPVLDSDGSFFLYSKLTVDKSRWQQGNVFSCSVMHGALHNHYTQESLSLSPGK
light: not shown
notes: also called IgG1-CAMPATH-1H-E430G-K439E with H310D; constant region IgG1m(f)-H310D-E430G-K439E
Regarding B5, the binding result in assay [5] was “no binding (tested: 40 µg/mL)”.

B6: IgG1-Campath-E430G H310R/S440K (antibody)
heavy: QVQLQESGPGLVRPSQTLSLTCTVSGFTFTDFYMNWVRQPPGRGLEWIGFIRDKAKGYTTEYNPSVKGRVTMLVDTSKNQFSLRLSSVTAADTAVYYCAREGHTAAPFDYWGQGSLVTVSSASTKGPSVFPLAPSSKSTSGGTAALGCLVKDYFPEPVTVSWNSGALTSGVHTFPAVLQSSGLYSLSSVVTVPSSSLGTQTYICNVNHKPSNTKVDKRVEPKSCDKTHTCPPCPAPELLGGPSVFLFPPKPKDTLMISRTPEVTCVVVDVSHEDPEVKFNWYVDGVEVHNAKTKPREEQYNSTYRVVSVLTVLRQDWLNGKEYKCKVSNKALPAPIEKTISKAKGQPREPQVYTLPPSREEMTKNQVSLTCLVKGFYPSDIAVEWESNGQPENNYKTTPPVLDSDGSFFLYSKLTVDKSRWQQGNVFSCSVMHGALHNHYTQKKLSLSPGK
light: not shown
notes: also called IgG1-CAMPATH-1H-E430G-S440K with H310R; constant region IgG1m(f)-H310R-E430G-S440K
As for B6, the binding result in assay [5] is given as “no binding (tested: 40 µg/mL)”.

B7: IgG1-Campath-E430G I253R/S440K (antibody)
heavy: QVQLQESGPGLVRPSQTLSLTCTVSGFTFTDFYMNWVRQPPGRGLEWIGFIRDKAKGYTTEYNPSVKGRVTMLVDTSKNQFSLRLSSVTAADTAVYYCAREGHTAAPFDYWGQGSLVTVSSASTKGPSVFPLAPSSKSTSGGTAALGCLVKDYFPEPVTVSWNSGALTSGVHTFPAVLQSSGLYSLSSVVTVPSSSLGTQTYICNVNHKPSNTKVDKRVEPKSCDKTHTCPPCPAPELLGGPSVFLFPPKPKDTLMRSRTPEVTCVVVDVSHEDPEVKFNWYVDGVEVHNAKTKPREEQYNSTYRVVSVLTVLHQDWLNGKEYKCKVSNKALPAPIEKTISKAKGQPREPQVYTLPPSREEMTKNQVSLTCLVKGFYPSDIAVEWESNGQPENNYKTTPPVLDSDGSFFLYSKLTVDKSRWQQGNVFSCSVMHGALHNHYTQKKLSLSPGK
light: not shown
notes: also called IgG1-CAMPATH-1H-E430G-S440K with I253R; constant region IgG1m(f)-I253R-E430G-S440K
Turning to B7, in assay [5], the binding result is on record as “no binding (tested: 40 µg/mL)”.

B8: IgG1-Campath-E430G I253K/S440K (antibody)
heavy: QVQLQESGPGLVRPSQTLSLTCTVSGFTFTDFYMNWVRQPPGRGLEWIGFIRDKAKGYTTEYNPSVKGRVTMLVDTSKNQFSLRLSSVTAADTAVYYCAREGHTAAPFDYWGQGSLVTVSSASTKGPSVFPLAPSSKSTSGGTAALGCLVKDYFPEPVTVSWNSGALTSGVHTFPAVLQSSGLYSLSSVVTVPSSSLGTQTYICNVNHKPSNTKVDKRVEPKSCDKTHTCPPCPAPELLGGPSVFLFPPKPKDTLMKSRTPEVTCVVVDVSHEDPEVKFNWYVDGVEVHNAKTKPREEQYNSTYRVVSVLTVLHQDWLNGKEYKCKVSNKALPAPIEKTISKAKGQPREPQVYTLPPSREEMTKNQVSLTCLVKGFYPSDIAVEWESNGQPENNYKTTPPVLDSDGSFFLYSKLTVDKSRWQQGNVFSCSVMHGALHNHYTQKKLSLSPGK
light: not shown
notes: also called IgG1-CAMPATH-1H-E430G-S440K with I253K; constant region IgG1m(f)-I253K-E430G-S440K
Consider B8, for which, in assay [5], the binding result is recorded as “no binding (tested: 40 µg/mL)”.
